This is an account of results in patent US20240400663A1 (Regeneron, published 2024).

Common to all, as to assay: cell-based or functional assay
In experiment [1] the target is T1, PfRH5 of Plasmodium falciparum strain 7G8 (on live parasites) (Plasmodium falciparum).
Experiment [2] concerns the target T2, PfRH5 of Plasmodium falciparum strain Dd2 (on live parasites) (Plasmodium falciparum).
In experiment [3] the target is T3, PfRH5 of Plasmodium falciparum strain FCR-1/FVO (on live parasites) (Plasmodium falciparum).
For experiment [4], the target named is PfRH5 of Plasmodium falciparum strain HB3 (on live parasites) (Plasmodium falciparum).
In experiment [5] the target is PfRH5 of Plasmodium falciparum strain RF7 (on live parasites) (Plasmodium falciparum).
In experiment [6] the target is PfRH5 of Plasmodium falciparum strain Cam3.II (on live parasites) (Plasmodium falciparum).
Experiment [7] has as its target PfRH5 of Plasmodium falciparum strain D10 (on live parasites) (Plasmodium falciparum).
The target in experiment [8] is T1, PfRH5 of Plasmodium falciparum strain …. The source holds these as a separate data set.
Experiment [9] deals with PfRH5 of Plasmodium falciparum strain W2-mef (on live parasites) (Plasmodium falciparum).
In experiment [10] the target is T3, PfRH5 of Plasmodium falciparum strain …. This is another data set of the same source.
Experiment [11] addresses T2, PfRH5 of Plasmodium falciparum strain …. The source holds these as a separate data set.

B1: H1H29089P (antibody, V domains shown)
VH: EVQLVQSGAEVKKPGESLKISCKGSGYSFTSYWIVWVRQMPGKGLEWMGIIYPGDSDTRYSPSFQGQVTISADKSISTAYLQWSSLKASDTAMYYCARQDITGTTGFDYWGQGTLVTVSS
VL: DIQMTQSPSSLSASVGDRVTITCRASQSIRNYLNWYQQKPGKAPKLLIYAASSLQSGVPSRFSGSGSGTDFTLTISSLQPEDFATYFCQQSYSTPFTFGPGTKVDIKR
For B1, in experiment [1], the “Max growth inhibition (%) 7G8, no chloroquine” value turned out to be 51.1%. Also, the “Max growth inhibition (%) Dd2” value in experiment [2] was 71.3%. The “Max growth inhibition (%) FCR-1/FVO” value in experiment [3] amounted to 66%. The “Max growth inhibition (%) HB3” value in experiment [4] was determined as 59.1%. The “Max growth inhibition (%) RF7” value in [5] was 28.9%. For the same molecule, the “Max growth inhibition (%) Cam3.II” value in experiment [6] stood at 56.2%. Moreover, the “Max growth inhibition (%) D10” value in experiment [7] was 82.3%. In experiment [8], the “Max growth inhibition (%) 7G8” value stood at 70.1%. The “Max growth inhibition (%) W2-mef” value in [9] came to 66.4%. In experiment [10], the “Percent Maximum Growth Inhibition, FCR-1/FVO, mAb (6.67 µM) + AHIS (10%)” value was 84.3%; the “Percent Maximum Growth Inhibition, FCR-1/FVO, mAb (6.67 µM) + ANS (10%)” value came out at 75.7%; the “Percent Maximum Growth Inhibition, FCR-1/FVO, mAb (6.67 µM) + HHIS (10%)” value was found to be 85.2%; the “Percent Maximum Growth Inhibition, FCR-1/FVO, mAb (6.67 µM) + HNS (10%)” value was found to be 85%. In experiment [10], the “Percent Maximum Growth Inhibition, FCR-1/FVO, mAb (6.67 µM) + No serum” value amounted to 85.3%.

B2: H1H29147P2 (antibody, V domains shown)
VH: QVQLVQSGAEVKNPGSSVKVSCKASGGTFSSYTINWVRQAPGQGLEWMGGIIPLYGTANYAQKFQARVTISTDESTNTAYMELSNLRFEDTAVYFCASTLELRAFDAFDIWGQGTMVTVSS
VL: not shown
With B2, the “Max growth inhibition (%) 7G8, no chloroquine” value in [1] amounted to 47.3%. Also, in experiment [2], the “Max growth inhibition (%) Dd2” value came out at 65.3%. Besides, the “Max growth inhibition (%) FCR-1/FVO” value in experiment [3] is 70.3%. Further, in experiment [4], the “Max growth inhibition (%) HB3” value amounted to 64.8%. Moreover, the “Max growth inhibition (%) RF7” value in experiment [5] was determined as 31.4%. For the same molecule, in experiment [6], the “Max growth inhibition (%) Cam3.II” value turned out to be 51.9%. Besides, in [7], the “Max growth inhibition (%) D10” value came to 81.4%. Moreover, the “Max growth inhibition (%) 7G8” value in experiment [8] amounted to 65.2%. In addition, in experiment [9], the “Max growth inhibition (%) W2-mef” value came out at 64.7%. Also, in experiment [10], the “Percent Maximum Growth Inhibition, FCR-1/FVO, mAb (6.67 µM) + AHIS (10%)” value stood at 86.2%; the “Percent Maximum Growth Inhibition, FCR-1/FVO, mAb (6.67 µM) + ANS (10%)” value worked out at 80.3%; the “Percent Maximum Growth Inhibition, FCR-1/FVO, mAb (6.67 µM) + HHIS (10%)” value came to 83.4%; the “Percent Maximum Growth Inhibition, FCR-1/FVO, mAb (6.67 µM) + HNS (10%)” value was found to be 85.6%. Also, the “Percent Maximum Growth Inhibition, FCR-1/FVO, mAb (6.67 µM) + No serum” value in experiment [10] worked out at 84.1%.

B3: H1H29100P (antibody, V domains shown)
VH: QLQLQESGPGLVKPSETLSLTCTVSGGSISSSSYYWGWIRQPPGKGLEWIGIIYYSGSTYYNPSLKSRVTISVDTSKNQFSLKLSSVTAADTAVYYCARQDREALFDYWGQGTLVTVSS
VL: EIVLTQSPDFQSVTPKEKVTITCRASQRIGSSLHWYQQKPDQSPKLLIKYASQSFSGVPSRFSGSGSGTDFTLTINSLEAEDAATYYCHQSSTLPTFGQGTRLEIKR
B3: the “Maximum growth inhibition (%) Dd2” value in experiment [11] stood at 65.7%. The “Max growth inhibition (%) 7G8, no chloroquine” value in [1] was found to be 48.9%. Further, in experiment [2], the “Max growth inhibition (%) Dd2” value stood at 64.6%. Besides, the “Max growth inhibition (%) FCR-1/FVO” value in [3] turned out to be 66.9%. In experiment [4], the “Max growth inhibition (%) HB3” value amounted to 62.6%. Moreover, the “Max growth inhibition (%) RF7” value in experiment [5] was found to be 17%. For the same molecule, in experiment [6], the “Max growth inhibition (%) Cam3.II” value is 52.4%. Also, the “Max growth inhibition (%) D10” value in [7] was found to be 81.7%. Moreover, the “Max growth inhibition (%) 7G8” value in experiment [8] worked out at 66.4%. Further, the “Max growth inhibition (%) W2-mef” value in experiment [9] worked out at 67.3%. In [10], the “Percent Maximum Growth Inhibition, FCR-1/FVO, mAb (6.67 µM) + AHIS (10%)” value was found to be 82.5%; the “Percent Maximum Growth Inhibition, FCR-1/FVO, mAb (6.67 µM) + ANS (10%)” value was 73.2%; the “Percent Maximum Growth Inhibition, FCR-1/FVO, mAb (6.67 µM) + HHIS (10%)” value was found to be 81.9%; the “Percent Maximum Growth Inhibition, FCR-1/FVO, mAb (6.67 µM) + HNS (10%)” value amounted to 82.4%. Besides, in experiment [10], the “Percent Maximum Growth Inhibition, FCR-1/FVO, mAb (6.67 µM) + No serum” value was determined as 83.9%.

B4: H1H29187P2 (antibody, V domains shown)
VH: QVQLVESGGGVVQPGRFLRLSCAASGFTFSNSGMHWVRQAPGKGLEWVAGIWHDGSYKYYVDSVKGRFTISRDNSKNTLFLQMNSLRAEDTAVYYCARDDYYASGTSVDVWGQGTTVTVSS
VL: not shown
As for B4, in [1], the “Max growth inhibition (%) 7G8, no chloroquine” value came out at 49.3%. Further, in [2], the “Max growth inhibition (%) Dd2” value was 66%. Besides, the “Max growth inhibition (%) FCR-1/FVO” value in experiment [3] is 72.2%. In addition, in experiment [4], the “Max growth inhibition (%) HB3” value was determined as 63.9%. Also, the “Max growth inhibition (%) RF7” value in experiment [5] came out at 32.7%. In experiment [6], the “Max growth inhibition (%) Cam3.II” value came out at 49.2%. Also, in experiment [7], the “Max growth inhibition (%) D10” value is 79.6%. Further, the “Max growth inhibition (%) W2-mef” value in experiment [9] is 67.3%. In [10], the “Percent Maximum Growth Inhibition, FCR-1/FVO, mAb (6.67 µM) + AHIS (10%)” value stood at 89.4%; the “Percent Maximum Growth Inhibition, FCR-1/FVO, mAb (6.67 µM) + ANS (10%)” value came to 80.1%; the “Percent Maximum Growth Inhibition, FCR-1/FVO, mAb (6.67 µM) + HHIS (10%)” value was 85.4%; the “Percent Maximum Growth Inhibition, FCR-1/FVO, mAb (6.67 µM) + HNS (10%)” value amounted to 85.9%. Further, in experiment [10], the “Percent Maximum Growth Inhibition, FCR-1/FVO, mAb (6.67 µM) + No serum” value is 85.3%.
